In the RNAGym collection of RNA variant scans (doi:10.1093/molbev/msab373):

B1: Azoarcus group I ribozyme (parent)
chain: GUGCCUUGCGCCGGGAAACCACGCAAGGGAUGGUGUCAAAUUCGGCGAAACCUAAGCGCCCGCCCGGGCGUAUGGCAACGCCGAGCCAAGCUUCGGCGCCUGCGCCGAUGAAGGUGUAGAGACUAGACGGCACCCACCUAAGGCAAACGCUAUGGUGAAGGCAUAGUCCAGGGAGUGGCGAAAGUCACACAAACCGG

Variants of: B1
Test: reverse-splicing fitness (ratio to wild type); higher = more active; in vitro selection; Mg2+ level not given
In short: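 An in vitro group I ribozyme library with randomized positions was T7-transcribed and gel-purified. In triplicate, 10 pmol RNA in EPPS pH 7.5 was reacted with 50 pmoles of a 30-nt RNA substrate for 1 h at 37 °C across several added MgCl2 levels (1–48 mM), then stopped with EDTA. Products were reverse transcribed from a substrate-complementary primer, PCR-amplified and sequenced (HiSeq 4000). Fitness is a variant's read proportion after selection over that before, normalised to wild type.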

| Variant | reverse-splicing fitness |
| --- | --- |
| GUGCCUUGCGCCGGGAAACCACGCAAGGGAUGGUGUCAAAUUCGGCGAAACCUAAGCGCCCGCCCGGGCGUAUGGCAACGCAGAGCCAAGCUUCGGCGCCUGCGCCGAUGCAGGUGUAGGGACUAGACGGCACCCACCUAAGGCGAACGUUAUGGUGAAGGCAUAGUCUAGGGAGUGGCGAAAGUCACACAAACCGG | 0.00986 |
| GUGCCUUGCGCCGGGAAACCACGCAAGGGAUGGUGUCAAAUUCGGCGAAACCUAAGCGCCCGCCCGGGCGUAUGGCAACGCAGAGCCAAGCUUCGGCGCCUGCGCCGAUGCAGGUGUAGGGACUAGACGGCACCCACCUAAGGCUAACGCUAUGGUGAAGGCAUAGUCCAGGGAGUGGCGAAAGUCACACAAACCGG | 0.0152 |
| GUGCCUUGCGCCGGGAAACCACGCAAGGGAUGGUGUCAAAUUCGGCGAAACCUAAGCGCCCGCCCGGGCGUAUGGCAACGCAGAGCCAAGCUUCGGCGCCUGCGCCGAUGCAGGUGUAGGGACUAGACGGCACCCACCUAAGGCGAACGUUAUGGUGAAGGCAUAGUCGAGGGAGGGGCGAAAGUCACACAAACCGG | 0.00582 |
| GUGCCUUGCGCCGGGAAACCACGCAAGGGAUGGUGUCAAAUUCGGCGAAACCUAAGCGCCCGCCCGGGCGUAUGGCAACGCAGAGCCAAGCUUCGGCGCCUGCGCCGAUGCAGGUGUAGGGACUAGACGGCACCCACCUAAGGCUAACGAUAUGGUGAAGGCAUAGUCAAGGGAGGGGCGAAAGUCACACAAACCGG | 0.00621 |
| GUGCCUUGCGCCGGGAAACCACGCAAGGGAUGGUGUCAAAUUCGGCGAAACCUAAGCGCCCGCCCGGGCGUAUGGCAACGCAGAGCCAAGCUUCGGCGCCUGCGCCGAUGCAGGUGUAGGGACUAGACGGCACCCACCUAAGGCUAACGAUAUGGUGAAGGCAUAGUCAAGGGAGCGGCGAAAGUCACACAAACCGG | 0.0113 |
| GUGCCUUGCGCCGGGAAACCACGCAAGGGAUGGUGUCAAAUUCGGCGAAACCUAAGCGCCCGCCCGGGCGUAUGGCAACGCAGAGCCAAGCUUCGGCGCCUGCGCCGAUGCAGGUGUAGGGACUAGACGGCACCCACCUAAGGCUAACGAUAUGGUGAAGGCAUAGUCAAGGGAGAGGCGAAAGUCACACAAACCGG | 0.0115 |
| GUGCCUUGCGCCGGGAAACCACGCAAGGGAUGGUGUCAAAUUCGGCGAAACCUAAGCGCCCGCCCGGGCGUAUGGCAACGCAGAGCCAAGCUUCGGCGCCUGCGCCGAUGCAGGUGUAGGGACUAGACGGCACCCACCUAAGGCGAACGCUAUGGUGAAGGCAUAGUCAAGGGAGCGGCGAAAGUCACACAAACCGG | 0.0288 |
| GUGCCUUGCGCCGGGAAACCACGCAAGGGAUGGUGUCAAAUUCGGCGAAACCUAAGCGCCCGCCCGGGCGUAUGGCAACGCAGAGCCAAGCUUCGGCGCCUGCGCCGAUGCAGGUGUAGGGACUAGACGGCACCCACCUAAGGCGAACGCUAUGGUGAAGGCAUAGUCAAGGGAGGGGCGAAAGUCACACAAACCGG | 0.00509 |
| GUGCCUUGCGCCGGGAAACCACGCAAGGGAUGGUGUCAAAUUCGGCGAAACCUAAGCGCCCGCCCGGGCGUAUGGCAACGCAGAGCCAAGCUUCGGCGCCUGCGCCGAUGCAGGUGUAGGGACUAGACGGCACCCACCUAAGGCGAACGCUAUGGUGAAGGCAUAGUCAAGGGAGAGGCGAAAGUCACACAAACCGG | 0.0215 |
| GUGCCUUGCGCCGGGAAACCACGCAAGGGAUGGUGUCAAAUUCGGCGAAACCUAAGCGCCCGCCCGGGCGUAUGGCAACGCAGAGCCAAGCUUCGGCGCCUGCGCCGAUGCAGGUGUAGGGACUAGACGGCACCCACCUAAGGCGAACGCUAUGGUGAAGGCAUAGUCGAGGGAGAGGCGAAAGUCACACAAACCGG | 0.0211 |
| GUGCCUUGCGCCGGGAAACCACGCAAGGGAUGGUGUCAAAUUCGGCGAAACCUAAGCGCCCGCCCGGGCGUAUGGCAACGCAGAGCCAAGCUUCGGCGCCUGCGCCGAUGCAGGUGUAGGGACUAGACGGCACCCACCUAAGGCGAACGCUAUGGUGAAGGCAUAGUCGAGGGAGGGGCGAAAGUCACACAAACCGG | 0.00491 |
| GUGCCUUGCGCCGGGAAACCACGCAAGGGAUGGUGUCAAAUUCGGCGAAACCUAAGCGCCCGCCCGGGCGUAUGGCAACGCAGAGCCAAGCUUCGGCGCCUGCGCCGAUGCAGGUGUAGGGACUAGACGGCACCCACCUAAGGCGAACGCUAUGGUGAAGGCAUAGUCGAGGGAGCGGCGAAAGUCACACAAACCGG | 0.0266 |
| GUGCCUUGCGCCGGGAAACCACGCAAGGGAUGGUGUCAAAUUCGGCGAAACCUAAGCGCCCGCCCGGGCGUAUGGCAACGCAGAGCCAAGCUUCGGCGCCUGCGCCGAUGCAGGUGUAGGGACUAGACGGCACCCACCUAAGGCGAACGCUAUGGUGAAGGCAUAGUCUAGGGAGCGGCGAAAGUCACACAAACCGG | 0.0157 |
| GUGCCUUGCGCCGGGAAACCACGCAAGGGAUGGUGUCAAAUUCGGCGAAACCUAAGCGCCCGCCCGGGCGUAUGGCAACGCAGAGCCAAGCUUCGGCGCCUGCGCCGAUGCAGGUGUAGGGACUAGACGGCACCCACCUAAGGCGAACGCUAUGGUGAAGGCAUAGUCUAGGGAGGGGCGAAAGUCACACAAACCGG | 0.00473 |
| GUGCCUUGCGCCGGGAAACCACGCAAGGGAUGGUGUCAAAUUCGGCGAAACCUAAGCGCCCGCCCGGGCGUAUGGCAACGCAGAGCCAAGCUUCGGCGCCUGCGCCGAUGCAGGUGUAGGGACUAGACGGCACCCACCUAAGGCGAACGCUAUGGUGAAGGCAUAGUCUAGGGAGAGGCGAAAGUCACACAAACCGG | 0.0159 |
